These results are taken from patent publication US20260193335A1 (ZOETIS SERVICES, published 2026).

The test has as its target T1, Feline FcRn (complex of FcRn-α subunit and β-microglobulin, C-terminal His tag) (feline, UniProt A0ABI7ZNY9 23-296; Q5MGS7 21-118).
T1 construct: treated here as one molecule
The test is described as follows: SPR Biacore, biotin-FcRn on SA chip, pH 6. The method, then: Feline FcRn was isolated, prepared and mutant Fc IgGs were assayed against feline FcRn according to Strietzel et. al., discussed above. Standard PCR was used to amplify feline FcRn-α subunit and β-microglobulin. FcRn-α subunit and β-microglobulin were co-transfected into HEK 293 cells and the FcRn complex was purified by IMAC affinity purification via the c-terminal His tag. FcRn complex was biotin labeled through BirA enzymatic biotinylatoin reaction. KD's were measured by Biacore T200 (GE Healthcare, Pittsburgh, PA, USA) or Biacore 8K (Cytiva, Marlborough, MA, USA) using a SA sensor chip.
FcRn was captured on the surface of the sensor using a modified SA capture method. 10 mM MES; 150 mM NaCl; 0.005% Tween20; 0.5 mg/mL BSA; pH6 was used as capture, method running buffer and titrations. 1×HBS-P, 0.5 mg/mL BSA; pH7.4 was also used for method running buffer and titrations. Fc mutant IgGs were flowed over receptor surfaces and affinity was determined using T200 evaluation software or Biacore Insight Evaluation software. Blank runs containing buffer only were subtracted out from all runs. Flow cells were regenerated using 50 mM Tris pH8 or pH9. Runs were performed at 15° C.

B1: mAb4 (felinized anti-IL31 antibody ZTS-5864) S428A, feline IgG1a (antibody)
heavy: DVQLVESGGDLVKPGGSLRLTCVASGFTFSDYAMSWVRQAPGKGLQWVAGIDSVGSGTSYADSVKGRFTISRDNAKNTLYLQMNSLKTEDTATYYCASGFPGSFEHWGQGTLVTVSSASTTAPSVFPLAPSCGTTSGATVALACLVLGYFPEPVTVSWNSGALTSGVHTFPAVLQASGLYSLSSMVTVPSSRWLSDTFTCNVAHPPSNTKVDKTVRKTDHPPGPKPCDCPKCPPPEMLGGPSIFIFPPKPKDTLSISRTPEVTCLVVDLGPDDSDVQITWFVDNTQVYTAKTSPREEQFNSTYRVVSVLPILHQDWLKGKEFKCKVNSKSLPSPIERTISKAKGQPHEPQVYVLPPAQEELSRNKVSVTCLIKSFHPPDIAVEWEITGQPEPENNYRTTPPQLDSDGTYFVYSKLSVDRSHWQRGNTYTCSVAHEALHSHHTQKSLTQSPGK
VL: QSVLTQPSSVSGTLGQRITISCTGSSSNIGSGYVGWYQQVPGMGPKTVIYYNSDRPSGVPDRFSGSKSGSSGTLTITGLQAEDEADYYCSVYDRTFNAVFGGGT
notes: also called mAb4 ID No. 2
Regarding B1, the Kd (as a rule, the concentration at which binding is half-saturated) came to 66.4 nM.

B2: mAb4 (felinized anti-IL31 antibody ZTS-5864) S428D, feline IgG1a (antibody)
heavy: DVQLVESGGDLVKPGGSLRLTCVASGFTFSDYAMSWVRQAPGKGLQWVAGIDSVGSGTSYADSVKGRFTISRDNAKNTLYLQMNSLKTEDTATYYCASGFPGSFEHWGQGTLVTVSSASTTAPSVFPLAPSCGTTSGATVALACLVLGYFPEPVTVSWNSGALTSGVHTFPAVLQASGLYSLSSMVTVPSSRWLSDTFTCNVAHPPSNTKVDKTVRKTDHPPGPKPCDCPKCPPPEMLGGPSIFIFPPKPKDTLSISRTPEVTCLVVDLGPDDSDVQITWFVDNTQVYTAKTSPREEQFNSTYRVVSVLPILHQDWLKGKEFKCKVNSKSLPSPIERTISKAKGQPHEPQVYVLPPAQEELSRNKVSVTCLIKSFHPPDIAVEWEITGQPEPENNYRTTPPQLDSDGTYFVYSKLSVDRSHWQRGNTYTCSVDHEALHSHHTQKSLTQSPGK
VL: QSVLTQPSSVSGTLGQRITISCTGSSSNIGSGYVGWYQQVPGMGPKTVIYYNSDRPSGVPDRFSGSKSGSSGTLTITGLQAEDEADYYCSVYDRTFNAVFGGGT
notes: also called mAb4 ID No. 4
As to B2, the Kd came out at 190 nM.

B3: mAb4 (felinized anti-IL31 antibody ZTS-5864) S428L and S434F, feline IgG1a (antibody)
heavy: DVQLVESGGDLVKPGGSLRLTCVASGFTFSDYAMSWVRQAPGKGLQWVAGIDSVGSGTSYADSVKGRFTISRDNAKNTLYLQMNSLKTEDTATYYCASGFPGSFEHWGQGTLVTVSSASTTAPSVFPLAPSCGTTSGATVALACLVLGYFPEPVTVSWNSGALTSGVHTFPAVLQASGLYSLSSMVTVPSSRWLSDTFTCNVAHPPSNTKVDKTVRKTDHPPGPKPCDCPKCPPPEMLGGPSIFIFPPKPKDTLSISRTPEVTCLVVDLGPDDSDVQITWFVDNTQVYTAKTSPREEQFNSTYRVVSVLPILHQDWLKGKEFKCKVNSKSLPSPIERTISKAKGQPHEPQVYVLPPAQEELSRNKVSVTCLIKSFHPPDIAVEWEITGQPEPENNYRTTPPQLDSDGTYFVYSKLSVDRSHWQRGNTYTCSVLHEALHFHHTQKSLTQSPGK
VL: QSVLTQPSSVSGTLGQRITISCTGSSSNIGSGYVGWYQQVPGMGPKTVIYYNSDRPSGVPDRFSGSKSGSSGTLTITGLQAEDEADYYCSVYDRTFNAVFGGGT
notes: also called mAb4 ID No. 23
In turn, B3 showed a Kd of 84.7 nM. This Kd is about 2.2-fold lower than that of the molecule before.

B4: mAb4 (felinized anti-IL31 antibody ZTS-5864) S428C, feline IgG1a (antibody)
heavy: DVQLVESGGDLVKPGGSLRLTCVASGFTFSDYAMSWVRQAPGKGLQWVAGIDSVGSGTSYADSVKGRFTISRDNAKNTLYLQMNSLKTEDTATYYCASGFPGSFEHWGQGTLVTVSSASTTAPSVFPLAPSCGTTSGATVALACLVLGYFPEPVTVSWNSGALTSGVHTFPAVLQASGLYSLSSMVTVPSSRWLSDTFTCNVAHPPSNTKVDKTVRKTDHPPGPKPCDCPKCPPPEMLGGPSIFIFPPKPKDTLSISRTPEVTCLVVDLGPDDSDVQITWFVDNTQVYTAKTSPREEQFNSTYRVVSVLPILHQDWLKGKEFKCKVNSKSLPSPIERTISKAKGQPHEPQVYVLPPAQEELSRNKVSVTCLIKSFHPPDIAVEWEITGQPEPENNYRTTPPQLDSDGTYFVYSKLSVDRSHWQRGNTYTCSVCHEALHSHHTQKSLTQSPGK
VL: QSVLTQPSSVSGTLGQRITISCTGSSSNIGSGYVGWYQQVPGMGPKTVIYYNSDRPSGVPDRFSGSKSGSSGTLTITGLQAEDEADYYCSVYDRTFNAVFGGGT
notes: also called mAb4 ID No. 3
Molecule B4 came in with a Kd of 29 nM.
